How the values were obtained:
[1] = molecular target: rapamycin-mediated complex of FKBP-WASP VCA-His6 and mTOR-WASP VCA-FLAG; test: pull-down
[2] = molecular target: N-WASPC (autoinhibited C-terminal fragment of N-WASP) (UniProt O08816); test: ITC
[3] = molecular target: N-WASPC (autoinhibited C-terminal fragment of N-WASP) (UniProt O08816)
[4] = molecular target: glutathione S-transferase (GST)

Sequence of N-WASPC (autoinhibited C-terminal fragment of N-WASP) (O08816 whole entry, the tested form may be a part): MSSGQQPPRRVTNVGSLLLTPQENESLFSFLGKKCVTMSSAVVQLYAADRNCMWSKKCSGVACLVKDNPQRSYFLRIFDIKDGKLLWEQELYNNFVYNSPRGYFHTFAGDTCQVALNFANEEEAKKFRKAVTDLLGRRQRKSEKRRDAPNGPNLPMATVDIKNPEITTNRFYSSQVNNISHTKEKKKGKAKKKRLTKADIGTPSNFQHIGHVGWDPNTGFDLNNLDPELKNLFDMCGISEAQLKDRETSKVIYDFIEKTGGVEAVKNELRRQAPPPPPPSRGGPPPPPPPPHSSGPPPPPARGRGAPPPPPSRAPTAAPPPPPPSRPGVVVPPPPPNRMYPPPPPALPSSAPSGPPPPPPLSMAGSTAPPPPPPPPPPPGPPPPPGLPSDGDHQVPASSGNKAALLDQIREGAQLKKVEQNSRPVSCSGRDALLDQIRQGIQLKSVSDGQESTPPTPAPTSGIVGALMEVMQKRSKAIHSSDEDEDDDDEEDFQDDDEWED
Sequence of EspFu 2RC (identical repeats four and five) (P0DJ88 whole entry, the tested form may be a part): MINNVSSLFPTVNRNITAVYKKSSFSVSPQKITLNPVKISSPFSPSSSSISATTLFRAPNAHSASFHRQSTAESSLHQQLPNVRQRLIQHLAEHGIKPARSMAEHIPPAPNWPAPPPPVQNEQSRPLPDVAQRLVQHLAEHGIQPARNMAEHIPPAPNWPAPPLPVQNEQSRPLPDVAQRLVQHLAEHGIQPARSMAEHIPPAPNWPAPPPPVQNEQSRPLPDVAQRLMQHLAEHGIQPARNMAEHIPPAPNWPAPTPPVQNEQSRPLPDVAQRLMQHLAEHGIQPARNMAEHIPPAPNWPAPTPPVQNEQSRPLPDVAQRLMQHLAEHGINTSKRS
Sequence of glutathione S-transferase (GST) (natural protein) (P08515 2-218): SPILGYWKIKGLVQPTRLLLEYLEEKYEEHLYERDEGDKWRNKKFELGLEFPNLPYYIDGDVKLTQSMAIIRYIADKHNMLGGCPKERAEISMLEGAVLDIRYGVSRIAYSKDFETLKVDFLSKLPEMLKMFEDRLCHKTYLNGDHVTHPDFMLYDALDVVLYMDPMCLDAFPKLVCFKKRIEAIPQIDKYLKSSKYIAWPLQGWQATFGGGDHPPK
Sequence of EspFu 1R (a single repeat of EspFu, the fourth repeat) (P0DJ88 whole entry, the tested form may be a part): as the sequence (P0DJ88 whole entry, the tested form may be a part) above

“Arp2/3 complex, endogenous in HEK293 cells (from UniProt P61158 1-418)” was tested, and the fold increase in precipitated Arp2/3 with rapamycin over no rapamycin [1] was > 3 fold.
With “EspFu 1R (a single repeat of EspFu, the fourth repeat) (from UniProt P0DJ88 1-337) (domain or fragment)” the Kd [2] was 35 nM.
With “EspFu 2RC (identical repeats four and five) (from UniProt P0DJ88 1-337) (domain or fragment)” the Kd [2] was 39 nM and the fold tighter affinity than 2R [3] was 3 fold.
For “glutathione S-transferase (GST) (natural protein)”, the Kd [4] was < 1 nM.

Reference: publication PMC2680354
